Drawing on article PMC4030953, “Pyranose Dehydrogenase from Agaricus campestris and Agaricus xanthoderma: Characterization and Applications in Carbohydrate Conversions” (Biomolecules, 2013), this text covers Km, kcat and kcat/Km for two proteins.

What all share (assay): spectrophotometric electron acceptor reduction
What all share (settings): apparent, 25 mM D-glucose, pH 4, 30 °C

Substrate in series [1]: O=C1C(Cl)=CC(=Nc2ccc(O)cc2)C=C1Cl
Type of series: biochemical, Agaricus campestris. The text has this:
(§1) spectrophotometric electron acceptor reduction on AcPDH

Substrate in series [2]: O=C1C=CC(=O)C=C1
Type of series: biochemical, Agaricus campestris.
Text: as §1

Substrate in series [3]: O=C1C(Cl)=CC(=Nc2ccc(O)cc2)C=C1Cl
It is filed as biochemical, Agaricus xanthodermus. The text has this: (§2) spectrophotometric electron acceptor reduction on AxPDH

Substrate in series [4]: O=C1C=CC(=O)C=C1
It is filed as biochemical, Agaricus xanthodermus.
Text: as §2

B1: AcPDH (Agaricus campestris) (protein)
chain: AITYQHPDDLPGDVDYDFIVAGGGTAGLVVASRLGENSKWNVLVIEAGPSNKDVFATRVPGLAETLPTSHIDWNYTTVPQQALGGRSLNYSRAMILGGCSTHNGMVYTRGSKDDWNKWADVTGNRDLSWDSILPIMKKVEKFSEDFSDQSVEGHIDPSVHGNDGKLSVVASYTNVSFNDLLLETTKELVDEFPFKLDMNDGNPVGLTWNQYTIDHNAERSSSATAYLESTGDNVHVLLNTRVTRIVPTGKTNFRTVEFAVDAGGPRKQLTAKKEVILSGGFIASPQILMNSGIGDQEALKAVGVDTLVNNPSVGKNVSDQAATLVLFDTTLPNTDFDVDAAIVEWNNSHAGPLATGAPLNHLIWVRLSDDKLSGSDPSSGKDSPHIEFQFSKISHRIPPANVPNQVALPSQDSIGVVIQFSVVNLNSISRGSVSLNDNNPFSHPLIDLNMLGEEQDIAILREGVHSARRMLSSEAFKPFVNGSVHPPANITSDEDLDAFLHTTTKSYLHGVGTLSMSPQNASWGVVDPDFRVKGTTGLRVVDASVIPSVPAGHTQTPVYAFAEYASIVIAKSYN
As a reminder, the Km is the substrate concentration at which the rate is half of its maximum. Broadly, the kcat is the number of substrate molecules converted per active site and unit of time at saturation. In general, kcat/Km refers to the second-order rate constant that governs catalysis at low substrate concentration. As to B1, in series [1], the Km came to 110 ± 0 µM, the kcat was 10.6 ± 0.57 s⁻¹ and the kcat/Km was determined as 96000 M⁻¹ s⁻¹. In series [2], the Km stood at 120 ± 10 µM, the kcat was 34.8 ± 1.02 s⁻¹ and the kcat/Km came to 303000 M⁻¹ s⁻¹.

B2: AxPDH (Agaricus xanthodermus) (protein)
chain: AITYQHPDDLPSNVNYDFIVAGGGTAGLVVASRLSENSDWNILVIEAGPSNKDTPETRVPGLADSLPGSRTDWNYTTIPQDALGGRSLNYSRAKVLGGCSTHNGMVYTRGSEDDWNYWAEVTGDQALSWDSVLPIMKKAEKFSQDFSDQSVDGHIDPAVHGRDGLLSVVASYTNVSFNDLLLQTTKELSDEFPFKLDLNDGKPHELAWTQYTIDHNAERSSSATSYLETTGDNVHVLVNTHVTRIVSAGNGTNFRSVEFAVDSNSPKKVLQAKKELILSAGVIASPQVLMNSGIGGREELQAIGVDTLIDNPSVGKNLSDQAATLLMFDTTLPNTDYDVAAALTEWDKSRSGPMAHGARLNHLTWVRLPDDKLNGSDPSSGKDSPHIEFQFRQISHQLPPADVPNQVQLPDPDSIGVVLQFSVVNLYSISPGSVILNDNDPFANPMIDLNMFGDQKDIAILREGVRSARRMFSSPAFKDVINGTVYPPADVTSDEDLDAFLRTSAESYWHGVGTLSMSPQNASWGVVNPDFRVKGTSGLRVVDASVIPRAPAGHTQVPVYTFAEHASVLIAASYH
Consider B2, for which, in series [3], the Km was determined as 90 ± 10 µM, the kcat was found to be 7.65 ± 0.66 s⁻¹ and the kcat/Km was found to be 85000 M⁻¹ s⁻¹. Also, in series [4], the Km turned out to be 3250 ± 510 µM, the kcat stood at 12.9 ± 1.56 s⁻¹ and the kcat/Km is 4000 M⁻¹ s⁻¹.
